According to PMC11879086, “Identification and characterization of a human MORC2 DNA binding region that is required for gene silencing” (Nucleic Acids Research, 2024):

Columns and labels:
[1] = biological target: T1, MORC2 dephosphorylated (wild-type) (Homo sapiens) (UniProt Q9Y6X9); assay: fluorescence anisotropy; settings: apo; FA/EMSA: 50 mM NaCl, 3 mM MgCl2, 20 mM Na-HEPES pH 7.4, 1 mM TCEP, 10% glycerol, 0.025 mM ZnCl2, 50 ug/ml BSA, room temperature; 1 nM nucleic acid (FA) or 20 nM
T1 sequence: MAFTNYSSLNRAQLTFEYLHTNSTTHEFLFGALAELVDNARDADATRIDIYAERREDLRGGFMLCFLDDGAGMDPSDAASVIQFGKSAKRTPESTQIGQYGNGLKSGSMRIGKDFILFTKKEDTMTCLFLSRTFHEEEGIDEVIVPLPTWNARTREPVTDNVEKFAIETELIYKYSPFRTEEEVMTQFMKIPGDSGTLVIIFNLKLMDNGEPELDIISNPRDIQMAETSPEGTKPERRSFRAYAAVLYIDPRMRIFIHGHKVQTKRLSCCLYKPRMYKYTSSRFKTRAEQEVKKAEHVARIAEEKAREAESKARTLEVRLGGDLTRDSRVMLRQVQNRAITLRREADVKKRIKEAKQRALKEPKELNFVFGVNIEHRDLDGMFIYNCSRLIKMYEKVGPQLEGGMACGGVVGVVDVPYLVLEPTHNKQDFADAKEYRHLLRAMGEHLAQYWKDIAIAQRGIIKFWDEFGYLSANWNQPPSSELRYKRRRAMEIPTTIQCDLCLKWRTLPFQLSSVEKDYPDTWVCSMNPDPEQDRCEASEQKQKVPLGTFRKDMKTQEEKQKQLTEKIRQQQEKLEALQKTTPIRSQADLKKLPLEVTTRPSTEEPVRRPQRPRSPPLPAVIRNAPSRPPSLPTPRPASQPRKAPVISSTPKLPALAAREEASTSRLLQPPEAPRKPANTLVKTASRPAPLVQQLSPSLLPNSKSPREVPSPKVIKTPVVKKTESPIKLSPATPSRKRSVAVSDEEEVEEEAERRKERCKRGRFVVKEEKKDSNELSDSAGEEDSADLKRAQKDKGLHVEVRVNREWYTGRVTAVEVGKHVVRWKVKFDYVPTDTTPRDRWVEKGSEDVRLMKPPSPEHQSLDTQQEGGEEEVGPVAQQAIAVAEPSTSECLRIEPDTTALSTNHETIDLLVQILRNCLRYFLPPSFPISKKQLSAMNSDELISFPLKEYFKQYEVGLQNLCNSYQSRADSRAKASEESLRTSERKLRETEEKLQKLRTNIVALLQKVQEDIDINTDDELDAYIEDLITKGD

[2] = system: MBP-MORC2 wild-type (Homo sapiens); assay: pull-down; settings: FA/EMSA: 50 mM NaCl, 3 mM MgCl2, 20 mM Na-HEPES pH 7.4, 1 mM TCEP, 10% glycerol, 0.025 mM ZnCl2, 50 ug/ml BSA, room temperature; 1 nM nucleic acid (FA) or 20 nM
[3] = biological target: the molecule itself; assay: SEC-MALS; full-length MORC2, 2 mg/ml, 150 mM NaCl, 3 mM MgCl2, 20 mM Na-HEPES pH 7.4, 0.5 mM TCEP, 1.5% glycerol, 0.025 mM ZnCl2, without AMP-PNP; Wyatt 030 column
[4] = biological target: T2, MORC2 dephosphorylated (wild-type) (Homo sapiens, UniProt Q9Y6X9 1-1032); assay: fluorescence anisotropy; apo; FA/EMSA: 50 mM NaCl, 3 mM MgCl2, 20 mM Na-HEPES pH 7.4, 1 mM TCEP, 10% glycerol, 0.025 mM ZnCl2, 50 ug/ml BSA, room temperature; 1 nM nucleic acid (FA) or 20 nM DNA (EMSA); settings: protein: recombinant, tags: tag removed by TEV, chain copies: 2, label: 5'-6-FAM
T2 sequence: T1 sequence

[5] = biological target: T2, MORC2 dephosphorylated (wild-type); assay: fluorescence anisotropy; apo ('5 or less'); FA/EMSA: 50 mM NaCl, 3 mM MgCl2, 20 mM Na-HEPES pH 7.4, 1 mM TCEP, 10% glycerol, 0.025 mM ZnCl2, 50 ug/ml BSA, room temperature; 1 nM nucleic acid (FA) or 20 nM DNA (EMSA); settings: protein: recombinant; tags: tag removed by TEV; chain copies: 2; label: 5'-6-FAM; blunt
[6] = biological target: T2, MORC2 dephosphorylated (wild-type); assay: fluorescence anisotropy; apo; Hill slope 0.6; FA/EMSA: 50 mM NaCl, 3 mM MgCl2, 20 mM Na-HEPES pH 7.4, 1 mM TCEP, 10% glycerol, 0.025 mM ZnCl2, 50 ug/ml BSA, room temperature; 1 nM nucleic acid (FA) or 20 nM DNA (EMSA); settings: protein: recombinant; tags: tag removed by TEV; chain copies: 2; label: 5'-6-FAM on oligo 3; four-way junction of 4 strands
[7] = biological target: the molecule itself; assay: SEC-MALS; coiled coil 3, 1.5 mg/ml, 150 mM NaCl, 3 mM MgCl2, 20 mM Na-HEPES pH 7.4, 0.5 mM TCEP, 1.5% glycerol, 0.025 mM ZnCl2; Wyatt 010 column

ATATCGATGTATATATCTGACACGTGCCTGGAGACTAGGGAGTAATCCCCTTGGCGGTTAAAACGCGGGGGACAGCGCGTACGTGCGTTTAAGCGGTGCTAGAGCTGTCTACGACCAATTGAGCGGCCTCGGCACCGGGATTCTGATAT (double strand) [Nucleosome on 2-601-2 DNA]
Kd [1]: 16 nM

pUC19 linear
binding signal (fold less than circular) [2]: 30

B1: full-length human MORC2 (dephosphorylated, wild-type) (natural protein, UniProt Q9Y6X9 1-1032, looked up)
chain: T1 sequence
notes: Cloned into vector 438-B (N-terminal His6-TEV) and into 438-C (N-terminal His6-MBP-TEV); Heterogeneous phosphorylation from insect cells was removed by phosphatase treatment; also called wild-type MORC2; full-length MORC2; not shown: His6, N-terminal, cleaved
stoichiometry N [3]: 2

B2: Random 45mer dsDNA (dsDNA)
DNA 1: GCCGCGTATAGGGTCCATCAGAATTCGGATGAACTCGGTGTGAAG
DNA 2: CTTCACACCGAGTTCATCCGAATTCTGATGGACCCTATACGCGGC
Kd ([4]; blunt): 11 ± 3 nM

B3: Random 65mer dsDNA (dsDNA)
DNA 1: ATTCTCCAGGGCGGCCGCGTATAGGGTCCATCAGAATTCGGATGAACTCGGTGTGAAGAAAGATC
DNA 2: GATCTTTCTTCACACCGAGTTCATCCGAATTCTGATGGACCCTATACGCGGCCGCCCTGGAGAAT
Kd [5]: < 5 nM

B4: Random 25mer dsDNA (dsDNA)
DNA 1: TCCATCAGAATTCGGATGAACTCGG
DNA 2: CCGAGTTCATCCGAATTCTGATGGA
Kd ([4]; blunt): 21 ± 2 nM

B5: Cruciform DNA (structured_DNA)
DNA 1: CCCTATAACCCCTGCATTGAATTCCAGTCTGATAA
DNA 2: GTAGTCGTGATAGGTGCAGGGGTTATAGGG
DNA 3: AACAGTAGCTCTTATTCGAGCTCGCGCCCTATCACGACTA
DNA 4: TTTATCAGACTGGAATTCAAGCGCGAGCTCGAATAAGAGCTACTGT
Kd [6]: 78 ± 12 nM

B6: MORC2 coiled coil 3 (residues 900-1032) (domain or fragment, human, UniProt Q9Y6X9 900-1032, looked up)
chain: ALSTNHETIDLLVQILRNCLRYFLPPSFPISKKQLSAMNSDELISFPLKEYFKQYEVGLQNLCNSYQSRADSRAKASEESLRTSERKLRETEEKLQKLRTNIVALLQKVQEDIDINTDDELDAYIEDLITKGD
notes: also called CC3; isolated MORC2 C-terminus; source: E. coli BL21 (DE3) RIL, purified (HisTrap, TEV cleavage, S75 SEC); not shown: His6, N-terminal, cleaved
stoichiometry N [7]: 2

B7: 149 bp Widom 601 dsDNA (2-601-2) (dsDNA)
DNA 1: ATATCGATGTATATATCTGACACGTGCCTGGAGACTAGGGAGTAATCCCCTTGGCGGTTAAAACGCGGGGGACAGCGCGTACGTGCGTTTAAGCGGTGCTAGAGCTGTCTACGACCAATTGAGCGGCCTCGGCACCGGGATTCTGATAT
DNA 2: ATATCAGAATCCCGGTGCCGAGGCCGCTCAATTGGTCGTAGACAGCTCTAGCACCGCTTAAACGCACGTACGCGCTGTCCCCCGCGTTTTAACCGCCAAGGGGATTACTCCCTAGTCTCCAGGCACGTGTCAGATATATACATCGATAT
Kd [5]: < 5 nM

AUAGGGUCCAUCAGAAUUCGGAUGAACUCGGUGUG (ssRNA) [Random 35mer ssRNA]
Kd [4]: 49 ± 6 nM

B8: High AT 35mer dsDNA (dsDNA)
DNA 1: CATCATCAAAGACCAAAAGTAGATAAAACCACAAA
DNA 2: TTTGTGGTTTTATCTACTTTTGGTCTTTGATGATG
Kd [5]: < 5 nM

ATAGGGTCCATCAGAATTCGGATGAACTCGGTGTG (ssDNA) [Random 35mer ssDNA]
Kd [4]: 51 ± 9 nM
